Experimental data reported in the RNAGym collection of RNA variant scans (doi:10.7554/elife.80360).

B1: HDV Ribozyme (parent)
chain: GGCCGGCAUGGUCCCAGCCUCCUCGCUGGCGCCGGCUGGGCAACAUUCCGAGGGGACCGUCCCCUCGGUAAUGGCGAAUGGGACCCA

Variants of: B1
Assay: self-cleavage, relative activity (ratio to wild type); higher = more cleavage; co-transcriptional
For C36U U65G, the self-cleavage was 0.582.
In the case of G67A A71U, the self-cleavage is reported as 0.725.
Variant C7G G54C has a self-cleavage of 0.415.
For C18G A43G, the self-cleavage was 0.145.
G5A C75U showed a self-cleavage of 0.0346.
U46G C64U showed a self-cleavage of 0.776.
In the case of G17A C62G, the self-cleavage is reported as 0.633.
With A16G C19G the self-cleavage was 0.151.
C57U C86U showed a self-cleavage of 0.991.
In the case of C4G G38U, the self-cleavage is reported as 0.0287.
For C41G C57A, the self-cleavage was 1.05.
G68C G80C gave a self-cleavage of 0.208.
Work on C30A A43G yielded a self-cleavage of 0.0739.
For A42G C75G, the self-cleavage was 0.
A8C G34U gave a self-cleavage of 0.104.
For A56C A83U, the self-cleavage was 0.192.
In the case of C62U C75A, the self-cleavage is reported as 0.166.
A16G U69A showed a self-cleavage of 0.985.
Work on U12C G38C yielded a self-cleavage of 0.0475.
C26G A71U gave a self-cleavage of 0.612.
Variant C30A G68U has a self-cleavage of 0.569.
For G28A U46A, the self-cleavage was 0.0326.
For G25U C61U, the self-cleavage was 0.163.
U37A U69C showed a self-cleavage of 0.415.
In the case of C30U C33U, the self-cleavage is reported as 0.369.
For G6C C75A, the self-cleavage was 0.0723.
Variant C26G A56U has a self-cleavage of 1.23.
G39C A43C showed a self-cleavage of 0.138.
G1U A16U gave a self-cleavage of 0.262.
Variant G28C G55A has a self-cleavage of 0.18.
G35C C86U gave a self-cleavage of 0.415.
Work on C22G C32G yielded a self-cleavage of 0.
With U23G U72G the self-cleavage was 0.214.
Variant A42G G68U has a self-cleavage of 0.403.
With C48G G55A the self-cleavage was 0.888.
G6A C30A gave a self-cleavage of 0.0421.
Work on C36A C75G yielded a self-cleavage of 0.154.
Work on U60G C85G yielded a self-cleavage of 1.09.
For G31U A71U, the self-cleavage was 0.181.
Work on C48G A77G yielded a self-cleavage of 0.755.
C30A G39A showed a self-cleavage of 0.0489.
For C41A A83U, the self-cleavage was 0.35.
For G6U G82C, the self-cleavage was 0.17.
In the case of G73C C75G, the self-cleavage is reported as 0.0573.
C4U C19U showed a self-cleavage of 0.0665.
U27C C30A showed a self-cleavage of 0.415.
Work on C14G C64A yielded a self-cleavage of 0.511.
For C4G C33G, the self-cleavage was 0.0583.
With A45G C61A the self-cleavage was 1.15.
In the case of U27G C62U, the self-cleavage is reported as 1.02.
For G6C U27C, the self-cleavage was 0.0923.
Work on C13G C41A yielded a self-cleavage of 0.0489.
C22U C24G showed a self-cleavage of 0.0563.
Work on G17A G81U yielded a self-cleavage of 0.182.
U60A U79C gave a self-cleavage of 0.515.
Variant G17A C57U has a self-cleavage of 0.727.
Work on G11U G29A yielded a self-cleavage of 0.158.
U65A U69C gave a self-cleavage of 0.782.
G10A U46C gave a self-cleavage of 0.397.
For G11C C63G, the self-cleavage was 0.434.
With G55C C84G the self-cleavage was 0.712.
In the case of G1A G34C, the self-cleavage is reported as 0.
Work on U9C U47C yielded a self-cleavage of 0.969.
G31A C48A gave a self-cleavage of 0.616.
Variant C36A G73U has a self-cleavage of 0.0583.
A56C G68U showed a self-cleavage of 1.08.
With C3A A83U the self-cleavage was 0.0821.
With C3U G5A the self-cleavage was 0.123.
For G28A U65G, the self-cleavage was 0.0386.
Variant C57A G82A has a self-cleavage of 0.554.
G59C C63G showed a self-cleavage of 0.909.
For G29U U79G, the self-cleavage was 0.0386.
Variant A83C A87G has a self-cleavage of 0.302.
Variant C57A A78C has a self-cleavage of 0.0437.
G55A U60G showed a self-cleavage of 0.798.
Variant C36A C66G has a self-cleavage of 0.177.
G38A G40A gave a self-cleavage of 0.262.
G35A G81C showed a self-cleavage of 0.188.
With C32U G80A the self-cleavage was 0.256.
Variant C44U G74C has a self-cleavage of 0.233.
A8U G81C showed a self-cleavage of 0.115.
In the case of C22G C41U, the self-cleavage is reported as 0.0656.
Work on C4U G5A yielded a self-cleavage of 0.185.
For A77C U79G, the self-cleavage was 0.151.
G2A U9C showed a self-cleavage of 0.113.
Work on G2U G52A yielded a self-cleavage of 0.0704.
G5A G34U gave a self-cleavage of 0.0282.
Variant G25A G55A has a self-cleavage of 0.193.
Work on G5U C36G yielded a self-cleavage of 0.128.
With U9A G38U the self-cleavage was 0.237.
In the case of G17U C22G, the self-cleavage is reported as 0.095.
In the case of C41A G76U, the self-cleavage is reported as 1.02.
Variant G34U G68C has a self-cleavage of 0.322.
With C15U A70G the self-cleavage was 1.07.
G1C C84U gave a self-cleavage of 0.128.
Work on G11U G52A yielded a self-cleavage of 0.375.
C4U C14U showed a self-cleavage of 1.04.
Work on U20C C63G yielded a self-cleavage of 0.104.
U46C A83U gave a self-cleavage of 0.554.
C33G C75G showed a self-cleavage of 0.0426.
For A16C G31U, the self-cleavage was 0.
In the case of G11A G34A, the self-cleavage is reported as 0.358.
Work on C33A G73U yielded a self-cleavage of 0.233.
In the case of G1C U72G, the self-cleavage is reported as 0.
In the case of G1A G31C, the self-cleavage is reported as 0.0292.
With A51U G80U the self-cleavage was 0.257.
Work on C36U U46C yielded a self-cleavage of 0.481.
With U65C G82U the self-cleavage was 0.567.
C18U C30A gave a self-cleavage of 0.156.
For G35U A70C, the self-cleavage was 0.354.
Variant A43C A83U has a self-cleavage of 0.161.
U12A C36A showed a self-cleavage of 0.0992.
In the case of G5U C13A, the self-cleavage is reported as 0.217.
C57U C63A showed a self-cleavage of 1.01.
For C32G A71C, the self-cleavage was 0.
In the case of G1U U12G, the self-cleavage is reported as 0.369.
U27C A71U gave a self-cleavage of 0.639.
For G25A A78U, the self-cleavage was 0.0346.
A8U C75U gave a self-cleavage of 0.298.
For C63G G81A, the self-cleavage was 0.453.
With C7A C21A the self-cleavage was 0.0791.
In the case of A16U G52A, the self-cleavage is reported as 0.7.
For G6A C48U, the self-cleavage was 0.759.
In the case of C19A U60G, the self-cleavage is reported as 0.0361.
Variant C24A G82C has a self-cleavage of 0.249.
With G34A C64G the self-cleavage was 0.0963.
Variant C3U C49G has a self-cleavage of 0.68.
With G2A A71C the self-cleavage was 0.13.
For C19G A43C, the self-cleavage was 0.0652.
G17C U37A gave a self-cleavage of 0.
Work on U23G C64A yielded a self-cleavage of 0.89.
With U60C G76A the self-cleavage was 1.05.
G2A G5C gave a self-cleavage of 0.0419.
In the case of G28A A78G, the self-cleavage is reported as 0.185.
For G29A C58G, the self-cleavage was 0.271.
With C18G C44A the self-cleavage was 0.
Variant C22A G35U has a self-cleavage of 0.0791.
C44U A71G showed a self-cleavage of 0.95.
Variant G39U A83U has a self-cleavage of 0.259.
Work on C33A U79C yielded a self-cleavage of 0.0893.
Variant U37G C58U has a self-cleavage of 0.0504.
In the case of U20A G25C, the self-cleavage is reported as 0.151.
Variant C22A C26A has a self-cleavage of 0.262.
G59C G74C gave a self-cleavage of 0.0678.
G52U G81C gave a self-cleavage of 0.298.
With C21U C48U the self-cleavage was 0.247.
G39U C49G gave a self-cleavage of 0.665.
For A70G G76U, the self-cleavage was 0.997.
For A51C G55C, the self-cleavage was 0.7.
Work on G50C C84U yielded a self-cleavage of 0.554.
U12G C22A showed a self-cleavage of 0.277.
In the case of U72G G81A, the self-cleavage is reported as 0.302.
G50A U60C showed a self-cleavage of 0.945.
G6U G11U gave a self-cleavage of 0.0361.
C61G U79C gave a self-cleavage of 0.499.
In the case of C3A C7U, the self-cleavage is reported as 0.188.
G1C U65G showed a self-cleavage of 0.
Variant G38U G53C has a self-cleavage of 0.434.
For G5U G34C, the self-cleavage was 0.
Work on U47C U65G yielded a self-cleavage of 0.856.
With U9G A78C the self-cleavage was 0.208.
Variant C19G C24G has a self-cleavage of 0.
A51U G68U gave a self-cleavage of 0.9.
For A8C G35C, the self-cleavage was 0.
In the case of G59U A78C, the self-cleavage is reported as 0.113.
With U23G C63G the self-cleavage was 0.688.
Work on G54U G68A yielded a self-cleavage of 0.81.
